Measured values taken from the supplement of paper PMC11246515.
± gives the standard deviation of the averaged measurements.

Test: total protein half-life in vivo (active degradation + dilution); higher = more stable protein
[1] = E. coli NCM3722 delta-clpP delta-lon delta-hslV, growth: N-lim chemostat, doubling time 6 h
[2] = E. coli NCM3722 delta-clpP, growth: N-lim chemostat, doubling time 6 h
[3] = E. coli NCM3722 delta-hslV, growth: N-lim chemostat, doubling time 6 h
[4] = E. coli NCM3722 delta-lon, growth: N-lim chemostat, doubling time 6 h
[5] = E. coli NCM3722 delta-smpB, growth: N-lim chemostat, doubling time 6 h
[6] = wild type E. coli NCM3722, growth: C-lim chemostat, doubling time 3 h
[7] = wild type E. coli NCM3722, growth: C-lim chemostat, doubling time 6 h
[8] = wild type E. coli NCM3722, growth: C-lim chemostat, doubling time 12 h
[9] = wild type E. coli NCM3722, growth: N-lim chemostat, doubling time 6 h
[10] = wild type E. coli NCM3722, growth: N-lim chemostat, doubling time 12 h
[11] = wild type E. coli NCM3722, growth: P-lim chemostat, doubling time 6 h
[12] = wild type E. coli NCM3722, growth: P-lim chemostat, doubling time 12 h

Row | Sequence | total protein half-life in vivo [1] | total protein half-life in vivo [2] | total protein half-life in vivo [3] | total protein half-life in vivo [4] | total protein half-life in vivo [5] | total protein half-life in vivo [6] | total protein half-life in vivo [7] | total protein half-life in vivo [8] | total protein half-life in vivo [9] | total protein half-life in vivo [10] | total protein half-life in vivo [11] | total protein half-life in vivo [12]
1 | MSDMAERLALHEFTENAYLNYSMYVIMDRALPFIGDGLKPVQRRIVYAMSELGLNASAKFKKSARTVGDVLGKYHPHGDSACYEAMVLMAQPFSYRYPLVDGQGNWGAPDDPKSFAAMRYTESRLSKYSELLLSELGQGTADWVPNFDGTLQEPKMLPARLPNILLNGTTGIAVGMATDIPPHNLREVAQAAIALIDQPKTTLDQLLDIVQGPDYPTEAEIITSRAEIRKIYENGRGSVRMRAVWKKEDGAVVISALPHQVSGARVLEQIAAQMRNKKLPMVDDLRDESDHENPTRLVIVPRSNRVDMDQVMNHLFATTDLEKSYRINLNMIGLDGRPAVKNLLEILSEWLVFRRDTVRRRLNYRLEKVLKRLHILEGLLVAFLNIDEVIEIIRNEDEPKPALMSRFGLTETQAEAILELKLRHLAKLEEMKIRGEQSELEKERDQLQGILASERKMNNLLKKELQADAQAYGDDRRSPLQEREEAKAMSEHDMLPSEPVTIVLSQMGWVRSAKGHDIDAPGLNYKAGDSFKAAVKGKSNQPVVFVDSTGRSYAIDPITLPSARGQGEPLTGKLTLPPGATVDHMLMESDDQKLLMASDAGYGFVCTFNDLVARNRAGKALITLPENAHVMPPVVIEDASDMLLAITQAGRMLMFPVSDLPQLSKGKGNKIINIPSAEAARGEDGLAQLYVLPPQSTLTIHVGKRKIKLRPEELQKVTGERGRRGTLMRGLQRIDRVEIDSPRRASSGDSEE [P0AFI2] | 5.85 ± 0.14 h | 6.82 ± 1.4 h | 3.67 ± 0.47 h | 3.93 ± 0.34 h | 3.2 ± 0.17 h | 2.44 ± 0.17 h | 3.745 ± 0.031 h | 5.99 ± 0.32 h | 3.42 ± 0.22 h | 5.17 ± 0.29 h | 2.947 ± 0.025 h | 5.43 ± 0.56 h
2 | MSDMHSLLIAAILGVVEGLTEFLPVSSTGHMIIVGHLLGFEGDTAKTFEVVIQLGSILAVVVMFWRRLFGLIGIHFGRPLQHEGESKGRLTLIHILLGMIPAVVLGLLFHDTIKSLFNPINVMYALVVGGLLLIAAECLKPKEPRAPGLDDMTYRQAFMIGCFQCLALWPGFSRSGATISGGMLMGVSRYAASEFSFLLAVPMMMGATALDLYKSWGFLTSGDIPMFAVGFITAFVVALIAIKTFLQLIKRISFIPFAIYRFIVAAAVYVVFF | – | > 8 h | – | 6.08 h | 5.89 h | > 4 h | – | 11.9 h | – | – | 6.83 ± 0.96 h | –
3 | MSDNIRVGLIGYGYASKTFHAPLIAGTPGQELAVISSSDETKVKADWPTVTVVSEPKHLFNDPNIDLIVIPTPNDTHFPLAKAALEAGKHVVVDKPFTVTLSQARELDALAKSLGRVLSVFHNRRWDSDFLTLKGLLAEGVLGEVAYFESHFDRFRPQVRDRWREQGGPGSGIWYDLAPHLLDQAITLFGLPVSMTVDLAQLRPGAQSTDYFHAILSYPQRRVILHGTMLAAAESARYIVHGSRGSYVKYGLDPQEERLKNGERLPQEDWGYDMRDGVLTRVEGEERVEETLLTVPGNYPAYYAAIRDALNGDGENPVPASQAIQVMELIELGIESAKHRATLCLA | 5.37 ± 0.71 h | 4.69 ± 0.12 h | 4.729 ± 0.033 h | 5.58 ± 0.43 h | 4.176 ± 0.0077 h | 3.26 ± 0.26 h | 5.54 ± 0.26 h | 9.43 ± 2.6 h | 5.05 ± 0.36 h | 10.5 ± 0.45 h | 5.48 ± 0.27 h | 13.8 ± 0.79 h
4 | MSDQLQMTDGMHIIVEALKQNNIDTIYGVVGIPVTDMARHAQAEGIRYIGFRHEQSAGYAAAASGFLTQKPGICLTVSAPGFLNGLTALANATVNGFPMIMISGSSDRAIVDLQQGDYEELDQMNAAKPYAKAAFRVNQPQDLGIALARAIRVSVSGRPGGVYLDLPANVLAATMEKDEALTTIVKVENPSPALLPCPKSVTSAISLLAKAERPLIILGKGAAYSQADEQLREFIESAQIPFLPMSMAKGILEDTHPLSAAAARSFALANADVVMLVGARLNWLLAHGKKGWAADTQFIQLDIEPQEIDSNRPIAVPVVGDIASSMQGMLAELKQNTFTTPLVWRDILNIHKQQNAQKMHEKLSTDTQPLNYFNALSAVRDVLRENQDIYLVNEGANTLDNARNIIDMYKPRRRLDCGTWGVMGIGMGYAIGASVTSGSPVVAIEGDSAFGFSGMEIETICRYNLPVTIVIFNNGGIYRGDGVDLSGAGAPSPTDLLHHARYDKLMDAFRGVGYNVTTTDELRHALTTGIQSRKPTIINVVIDPAAGTESGHITKLNPKQVAGN [P0AFI0] | 5.61 ± 0.33 h | – | – | – | 3.08 h | > 4 h | 3.11 h | – | – | – | 4.43 h | 9.26 ± 0.98 h
5 | MSDRIDRDVINALIAGHFADPFSVLGMHKTTAGLEVRALLPDATDVWVIEPKTGRKLAKLECLDSRGFFSGVIPRRKNFFRYQLAVVWHGQQNLIDDPYRFGPLIQEMDAWLLSEGTHLRPYETLGAHADTMDGVTGTRFSVWAPNARRVSVVGQFNYWDGRRHPMRLRKESGIWELFIPGAHNGQLYKYEMIDANGNLRLKSDPYAFEAQMRPETASLICGLPEKVVQTEERKKANQFDAPISIYEVHLGSWRRHTDNNFWLSYRELADQLVPYAKWMGFTHLELLPINEHPFDGSWGYQPTGLYAPTRRFGTRDDFRYFIDAAHAAGLNVILDWVPGHFPTDDFALAEFDGTNLYEHSDPREGYHQDWNTLIYNYGRREVSNFLVGNALYWIERFGIDALRVDAVASMIYRDYSRKEGEWIPNEFGGRENLEAIEFLRNTNRILGEQVSGAVTMAEESTDFPGVSRPQDMGGLGFWYKWNLGWMHDTLDYMKLDPVYRQYHHDKLTFGILYNYTENFVLPLSHDEVVHGKKSILDRMPGDAWQKFANLRAYYGWMWAFPGKKLLFMGNEFAQGREWNHDASLDWHLLEGGDNWHHGVQRLVRDLNLTYRHHKAMHELDFDPYGFEWLVVDDKERSVLIFVRRDKEGNEIIVASNFTPVPRHDYRFGINQPGKWREILNTDSMHYHGSNAGNGGTVHSDEIASHGRQHSLSLTLPPLATIWLVREAE | 6.52 ± 0.61 h | 5.72 ± 0.24 h | 6.65 ± 0.44 h | 6.1 ± 0.46 h | 6.35 ± 0.16 h | 2.98 ± 0.15 h | 6.06 ± 0.42 h | 13.2 ± 0.43 h | 5.95 ± 0.2 h | 12.2 ± 2.1 h | 6.35 ± 0.33 h | 12.1 ± 1.9 h
6 | MSDTNYAVIYDLHSHTTASDGCLTPEALVHRAVEMRVGTLAITDHDTTAAIAPAREEISRSGLALNLIPGVEISTVWENHEIHIVGLNIDITHPLMCEFLAQQTERRNQRAQLIAERLEKAQIPGALEGAQRLAQGGAVTRGHFARFLVECGKASSMADVFKKYLARGKTGYVPPQWCTIEQAIDVIHHSGGKAVLAHPGRYNLSAKWLKRLVAHFAEHHGDAMEVAQCQQSPNERTQLAALARQHHLWASQGSDFHQPCPWIELGRKLWLPAGVEGVWQLWEQPQNTTEREL | 4.2 ± 0.46 h | 2.69 ± 0.6 h | 2 h | 4.05 ± 1.8 h | 1.76 ± 0.21 h | 1.42 ± 0.78 h | 3.06 h | 5.96 h | 2.24 ± 0.19 h | 2.55 ± 0.59 h | 2.72 h | 4.57 ± 0.45 h
